Assay results from patent publication US20040018561.

Experiments:
[1] = test system: N-2-[(7-methoxy-2-oxo-2H-chromen-4-yl)acetyl]-D-arginyl-L-prolyl-L-leucylglycyl-6-(benzyloxy)-L-norleucyl-3-[(2,4-dinitrophenyl)amino]-L-alanyl-L-alanyl-D-arginyl-D-alpha-glutamyl-D-argininamide
[2] = test system: N-2-[(7-methoxy-2-oxo-2H-chromen-4-yl)acetyl]-D-arginyl-L-prolyl-L-leucylglycyl-6-phenoxy-L-norleucyl-3-[(2,4-dinitrophenyl)amino]-L-alanyl-L-alanyl-D-arginyl-D-alpha-glutamyl-D-argininamide
[3] = test system: N-2-[(7-methoxy-2-oxo-2H-chromen-4-yl)acetyl]-D-arginyl-L-prolyl-L-leucylglycyl-L-leucyl-3-[(2,4-dinitrophenyl)amino]-L-alanyl-L-alanyl-D-arginyl-D-alpha-glutamyl-D-argininamide
[4] = test system: N-2-[(7-methoxy-2-oxo-2H-chromen-4-yl)acetyl]-L-arginyl-L-prolyl-L-leucylglycyl-6-(benzyloxy)-L-norleucyl-3-[(2,4-dinitrophenyl)amino]-L-alanyl-L-alanyl-L-arginyl-L-alpha-glutamyl-L-argininamide
[5] = test system: N-2-[(7-methoxy-2-oxo-2H-chromen-4-yl)acetyl]-L-arginyl-L-prolyl-L-leucylglycyl-L-leucyl-3-[(2,4-dinitrophenyl)amino]-L-alanyl-L-alanyl-D-arginyl-D-alpha-glutamyl-D-argininamide
[6] = test system: N-2-[(7-methoxy-2-oxo-2H-chromen-4-yl)acetyl]-L-arginyl-L-prolyl-L-leucylglycyl-L-leucyl-3-[(2,4-dinitrophenyl)amino]-L-alanyl-L-alanyl-L-arginyl-L-alpha-glutamyl-L-argininamide

MMP-8, sequence (chain, as listed by the source): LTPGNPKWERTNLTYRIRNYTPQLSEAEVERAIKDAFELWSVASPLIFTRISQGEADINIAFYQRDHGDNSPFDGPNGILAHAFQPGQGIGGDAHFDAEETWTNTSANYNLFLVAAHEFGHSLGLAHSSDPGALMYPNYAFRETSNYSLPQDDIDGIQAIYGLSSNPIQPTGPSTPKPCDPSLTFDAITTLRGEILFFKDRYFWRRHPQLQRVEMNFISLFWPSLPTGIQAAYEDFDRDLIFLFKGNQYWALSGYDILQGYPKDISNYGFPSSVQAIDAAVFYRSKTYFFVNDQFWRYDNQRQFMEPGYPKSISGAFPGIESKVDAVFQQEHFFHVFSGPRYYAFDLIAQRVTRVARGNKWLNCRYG
MMP-3, sequence (chain, as listed by the source): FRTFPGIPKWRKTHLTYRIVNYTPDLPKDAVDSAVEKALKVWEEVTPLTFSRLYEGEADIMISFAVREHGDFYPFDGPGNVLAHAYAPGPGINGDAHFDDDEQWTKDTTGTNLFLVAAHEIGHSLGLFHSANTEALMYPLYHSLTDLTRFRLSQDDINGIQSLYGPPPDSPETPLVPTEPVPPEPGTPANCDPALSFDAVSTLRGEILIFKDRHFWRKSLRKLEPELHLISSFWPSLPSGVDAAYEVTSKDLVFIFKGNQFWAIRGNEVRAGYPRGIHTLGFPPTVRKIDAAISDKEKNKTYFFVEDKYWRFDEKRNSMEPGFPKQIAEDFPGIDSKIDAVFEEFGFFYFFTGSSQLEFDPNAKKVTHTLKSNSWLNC
MMP-9, sequence (chain, as listed by the source): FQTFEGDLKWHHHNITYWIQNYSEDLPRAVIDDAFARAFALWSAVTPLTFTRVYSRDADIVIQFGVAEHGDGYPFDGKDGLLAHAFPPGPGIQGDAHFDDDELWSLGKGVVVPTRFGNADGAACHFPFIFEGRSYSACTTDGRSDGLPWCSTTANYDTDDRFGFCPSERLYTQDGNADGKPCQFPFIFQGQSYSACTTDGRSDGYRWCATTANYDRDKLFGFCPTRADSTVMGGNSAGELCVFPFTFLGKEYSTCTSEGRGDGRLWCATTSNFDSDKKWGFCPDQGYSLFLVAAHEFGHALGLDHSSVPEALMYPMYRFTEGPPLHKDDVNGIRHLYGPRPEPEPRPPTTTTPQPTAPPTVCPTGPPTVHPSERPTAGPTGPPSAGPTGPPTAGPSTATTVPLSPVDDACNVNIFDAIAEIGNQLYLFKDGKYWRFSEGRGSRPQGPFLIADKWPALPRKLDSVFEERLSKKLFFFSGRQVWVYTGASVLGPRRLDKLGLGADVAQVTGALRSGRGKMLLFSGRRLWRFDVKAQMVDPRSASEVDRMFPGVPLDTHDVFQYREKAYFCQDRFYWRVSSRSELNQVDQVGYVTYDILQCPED

| Substance | Km [1] | kcat/Km [1] | kcat/Km [2] | Km [3] | kcat/Km [3] | Km [4] | kcat/Km [4] | Km [5] | kcat/Km [5] | Km [6] | kcat/Km [6] | Km [2] |
| --- | --- | --- | --- | --- | --- | --- | --- | --- | --- | --- | --- | --- |
| MMP-3 | 28.9 µM | 1600 M⁻¹ s⁻¹ | 0 M⁻¹ s⁻¹ | 14 µM | 6300 M⁻¹ s⁻¹ | 85.9 µM | 4800 M⁻¹ s⁻¹ | 59.5 µM | 800 M⁻¹ s⁻¹ | 38.7 µM | 9800 M⁻¹ s⁻¹ | – |
| MMP-8 | 3.3 µM | 146000 M⁻¹ s⁻¹ | 522000 M⁻¹ s⁻¹ | 16.7 µM | 139000 M⁻¹ s⁻¹ | 9.1 µM | 179000 M⁻¹ s⁻¹ | 13.3 µM | 456000 M⁻¹ s⁻¹ | 20.1 µM | 381000 M⁻¹ s⁻¹ | 4.4 µM |
| MMP-9 | 3.3 µM | 319000 M⁻¹ s⁻¹ | 1.91e+06 M⁻¹ s⁻¹ | 6.4 µM | 418000 M⁻¹ s⁻¹ | 2.3 µM | 1.47e+06 M⁻¹ s⁻¹ | 8.2 µM | 1.33e+06 M⁻¹ s⁻¹ | 6.2 µM | 1.29e+06 M⁻¹ s⁻¹ | 1.4 µM |
| MMP-13 | 1.5 µM | 1.58e+06 M⁻¹ s⁻¹ | 2.93e+06 M⁻¹ s⁻¹ | 9 µM | 296000 M⁻¹ s⁻¹ | 0.9 µM | 4.24e+06 M⁻¹ s⁻¹ | 4.7 µM | 4.08e+06 M⁻¹ s⁻¹ | 3.9 µM | 3.92e+06 M⁻¹ s⁻¹ | 1.2 µM |
